The record followed here is the DeepSol protein solubility set.

This series in a line: soluble on expression in E. coli; label from the status in PepcDB or PDB records.
As to “MATPSLTDACVHCGFCLSDCPSYRVLGRETDSPRGRVYLMDSLQQGRIELSDTVVEHFDTCLGCLACTSACPSGVQYDQLIEEMRQRIAQEHRRPWPEAIWRKLLFAFLPLEHHHHHH”, the “soluble on expression in E. coli” value is “soluble”.

For the sequence “MGSDKIHHHHHHMQLLEFPNIAIIAGENAVPVAQLPLVWQDIAKGTANVGLCNPQIYVEMAQLFLYKLEQGDVDLFNERPELAHLKSSFCQLFGQLGRETLEFYGYDFMTHNYPNFEEILREVESKDADYGKVARIGLELFQEFGYELPASFYHVHLAPIYRDHVFEERALRFDKRDIEHKRSWDAILHAGKVFAVQMKVQSIASKYGFTYQHGCGCNSHLSSIDESRGTFAYELSQEKRDRWIRSFIWTAWYEYAFFPIVPNTSYLV”, the “soluble on expression in E. coli” value is “not soluble”.

For the sequence “MSADFEQLVAQFERFQARMTRVEQQFAGVDDMRQRLAELEVAATSADRSVTVVAGPSGAILDIRLTEQAVRKPAHALAGELMSTLRKAVAEAARRQAGIVDGALGEAFGDDLDLTEQVLETQAELFGMSKEELRAVTAEEATTAPQQGPPAPPARPTPPSPGQPQGGPVPGRPEPGQARTGGPQPGRPHSGRQQSGQPQPGRPQSGQPQPGRPQSGQPQPGKSQPGTSQPGQARPGQSGPAQRPQGGEPQQEDFSERNFMKDDWKQSGSKAQPPGPGGKQDDRFLNLYDDEDGR”, the “soluble on expression in E. coli” value is recorded as “not soluble”.

Turning to “METSDERLAGAAAEGDRGAFALLVERHYDRIFGLSWRLTGSRTEAEDLAQDICAALPMKLRGWRGEARFTTWLYRVVVNASHDLRRRQSAHSRAAAGWGDWELARQDEIGEARAAEEWLAAAMTALPVELRDTVALVLGEEMTQAEAGAVLGLAEGTVAWRMSEVKKRLRAMALREARA”, the “soluble on expression in E. coli” value was “not soluble”.

In the case of “MGSDKIHHHHHHLRIFGKEGCRMEMQRVIELDMPVNFRDLGGYQGLDGRQVKWRKIYRSAALNEMSARDRVKLANLRITVDCDLRSSREQRSYPDLLWPGVRFVNIGLYAEGDRFNQAHPFLRLFHHLPEFDDYLPKIYQQVLLNEHSEEGIKRVFEELLKLPEDQALVYHCAAGKDRTGIISILILMALGVDDKTIAEDYLLTDELYDFSIEKQHPTNEKLSQVIAKMNVTRGEGTAVKGITETIRQGWGSFDKFFTRKLGFKQADLEKFREMYLEEEEED”, the “soluble on expression in E. coli” value was “not soluble”.

For the sequence “MESESIVYGCIRDWPGDSMERRMRRAANRRVLDSLPGGEAWPFLGREMFSRCEQSGAGLYQTQIIHFGASYQAIEYEWSLWVEQFEALLRRLYWASAVVHLETEVNGSHTFRWESERGFHTPQESDLQVRCAWEREGGRR”, the “soluble on expression in E. coli” value was “not soluble”.

Consider “MAKKKNVSVISVEKPTWFPLTDETGAFPVYGAPITIGTAVSIKPDVTTETTPDYGDSVVQDQYVAFGGAEVTLETNGYQNEVLAEITGGKKLKGGVLRSADDIASDGAFAYRRRKSNGKYRYTIFYKGKFALTSDETSTLEGSSVSYTHPEWTGSFVDVPGLGYMYSVDEDDEGVDLEMIKNWFTEVMDPRKENTTAVTGVTLDQTELNLKVGQTATLTPTITPDNASNKKYQFRSESEAIGTVTPIQGKVTAVGEGTTEIVVTTEDGNFTAKCTLNVTTAD”, for which the “soluble on expression in E. coli” value was “not soluble”.

Take “MGSDKIHHHHHHMYEEWKIVKREAPILGNDQLIENIWKMKREDSPYDIISLHKVNLIGGGNDAVLILPGTWSSGEQLVTISWNGVHYTIPDYRKSIVLYLARNGFNVYTIDYRTHYVPPFLKDRQLSFTANWGWSTWISDIKEVVSFIKRDSGQERIYLAGESFGGIAALNYSSLYWKNDIKGLILLDGGPTKHGIRPKFYTPEVNSIEEMEAKGIYVIPSRGGPNNPIWSYALANPDMPSPDPKYKSISDFLMDSLYVTGSANPYDYPYSKKEDMFPILASFDPYWPYRLSLERDLKFDYEGILVPTIAFVSERFGIQIFDSKILPSNSEIILLKGYGHLDVYTGENSEKDVNSVVLKWLSQQR”: the “soluble on expression in E. coli” value was “not soluble”.

Take “EMDRRAALSGAAGAFMAACDEAVRELLLAMNFSDHDAEAIITGAAPPQLEHAASGVVSLVLRLKSSVLSHYIKHLNNAAARSQAAAASTAAVDGNAEDAADKHGAKATSAAKAPPAAGGGAGDAADQQLSTGEACLVQLQLYGGVGDALLQLLRSKLRGSACQLWALAHIVHPHPSRSEKESLAAYTGKSTKQVTDWFTNWRARHWRPAIMALQKGAAGGAAGGSLG”: the “soluble on expression in E. coli” value was “soluble”.

Turning to “MDEDTEDWETQLQANRDEKDRFFSEHRQSPIPPEERDDFDGLSYFDPDPDYRVEATVTVHETPESVDLETSDDRTVRYLHVATLSFDLDGESRDLHAFRQAADESRTLFVPFRDKTTGQQSYDGGRYMELEPDRDLSDGDEITLDFNLAYSPFCAYSDTFSCPLPPESNWLETAVTAGERTDLEHHHHHH”, the “soluble on expression in E. coli” value is “soluble”.

Take “MSLKIGKIVSVNFNQFRVKISSEIRGNSVNLAGTVYYFGNIGSYLKTTNSVGEQLICEVMSIFDSDTKLDSAAYDFDSNRELLLKPIGTITRDDRFNLGVGIFPGIYSEVNVVTFEDMELILQTGKDKELSKAIHQSFFLGESKNLINYPIDISINSFFNIHSAVLGNSGSGKSNTIAHIIQEIHKKKNNSAIGSRILIFDVNGEYKNAFTGHEISPYIKVRLLKPNIEATEDGVEPFYLPHFLMNIDEWSSFLMATDATQRPFWDKVLQESYKFYMIATHEGDDRQKLINYLRFKICNLIHILQAQGDSDTAIITTAQGILYGILTLIEMDDDLQRACQQEGVLQDLHDLNASEGHHHHHH”: the “soluble on expression in E. coli” value is “not soluble”.

With “MGSDKIHHHHHHMKLPRFGVEEWLNVHENSAIYDIAGVSISSLTLEELFALSGTNPEDFYKKLQGTKLNYGWIEGSPAFKKSVSQLYTGVKPEQILQTNGATGANLLVLYSLIEPGDHVISLYPTYQQLYDIPKSLGAEVDLWQIEEENGWLPDLEKLRQLIRPTTKMICINNANNPTGAVMDRTYLEELVEIASEVGAYILSDEVYRSFSELDVPSIIEVYDKGIAVNSLSKTYSLPGIRIGWVAANHQVTDILRDYRDYTMICAGVFDDLVAQLALAHYQEILERNRHILEENLAILDQWIEEEPLVSYIRPAVVSTSFVKIAVDMPMEDFCLQLLQEHGVLLVPGNRFERDGYVRLGFACEQETLIKGLEKLSQFLRRFDKEN”, the “soluble on expression in E. coli” value is given as “not soluble”.

“MSLGYLEAAPYGINAPFAWEVQGGKGSGITFVDMEYGWLLNHEDLVHQNIELMSGINIDQHVGHGTSVLGIVSSEDNEVGNIGIAPKAKAKVISQIRDNGQYNTADAILSAVNQLEAGDVLLLEAQASFDGYGDKYLPVEVQPDIFDAIRAGTDKGVVIIEAGANGWNDLDQFKDRNGKQILNRNSKDFKDSGAIMVGAGSSSFPHERMWFSNYGSRIDVYGWGENVDTTTAEQSRSAVNLYTSSFSGTSSASPIIAGAATLVQSIAKENLGQPYRPSELRAILSNENTGTKSKDPYADQIGVLPDLKSILVNLGYGQRKPNGGNELQVTENEPNNERIQANKVNFHTPMKGTLHNSDRVDVFTFQMDSPENITISLLNEQNIGMTWVLHHESDLNNYVAYGENEGNVVKGTYHAKPGKYYLYVYKYENKDGSYVLNIKEGHHHHHH”: the “soluble on expression in E. coli” value was “soluble”.

Turning to “MGSDKIHHHHHHMKKYYIYILTAVLPILWGACNNGDDIDTKHSIFSTEPMEHNGFDEWLLANYTYPYNVDFKYRMQDIESDHKYNLVPADYDKSVALAKIIKHVWMEAYTELAGPAFLRSYVPKTFHLIGSPAYDSSGTKVLGTAEGGKKITLYEVNSLDFENVDIEVLNEYYFKTMHHEFAHILHQKRNYDPSFDRITEGKYVGSDWYFYVAENGNSYLREDADAWPEGFVTAYAMSEAREDFVENIAMYVTHDQAYWDNMLKVAGTAGAAIINQKFTIVYNYMLETWGINLDDLREIVLRRQQEIPELDLSTIE”, the “soluble on expression in E. coli” value is reported as “not soluble”.

On to “MAHHHHHHMDKQAERGQSAGPVKTPQGTQPPAHNYTYHTNAAQRAVYDYLKNVKPIPELAEPKTYKTYEEASVEAVLYPIIEKHQVIMVAGAFFGDEGKGKTVNAVANHPGCTFIARVNSGENAGHTVYDDAGRKFVFNLAPSGLLSKGKRNYVGPECVMDPISFMENEVKQLIEANVPYKEQLFIGNVSIVTPYHKLLDLLASAPNSSTLKGMAPIHASKVTKRGIRLDHIFNDQSVLRSRLRKDIDTYFGFLKVKGLSDADVLRRCEKENGDGVVRVPPYVVEFVQAEDKVEYLVKLYMDRVRNNKNFPARCDVAHELRSALSRGEKVMLEGPQSYWLSNAREKFWESTTSADTTASGLLATAQYNFQLYSSVVINVHKAPGSSRVGVGANPSSFVAQDYFSATGVKTLRDLPENMCVDFDSIQKLFFTKAFHPETKEYNGIWEPLEFEDSTGKYNIGVAMAVASSRQHGECGAVTKKPRVCGFFDCVLQYEVNAVQGPYLSISALDRGDDYDKLGVTIAYVYYNGKNDEVLNINGREYKNGDIIKAGEAVPGEVALYYCHPIVKLINGWKQTPIAASKRKPGDPLPRGVCEFLSTVEYFTKAKIISIGNGPRGKDIIYIKQ”, for which the “soluble on expression in E. coli” value is recorded as “not soluble”.

Consider “MMKAIPVEQAVGTVLCHDLTRIVPGEHKGRAFRKGHIVTEADIPLLLSIGKEHLYVLNLEAHQLHEDEAALRIATAAAGPGISLSEVSEGRINFMASPGLLCVDVEALNAINAIDEVALATMHSGQFIAARRAVAGTRVVPLVIDESKIRQVERICAASYPVVQVKPLRSHSIGVVTTGSEIFHGRIKDKFGPVMRDKFAALGSSVMGQRLVGDAPEATRDAILSFIGEGADMVVVTGGMSVDPDDQTPASIRATGAEVVTYGSPTFPGVMFMLAYLNDIPVLGLPGCVMYYRASIFDLVVPRLLAGERLARRDITSLGHGGFCAGCETCHHPVCPFGKLEHHHHHH”, for which the “soluble on expression in E. coli” value is given as “not soluble”.

Take “MSSMVEVEHWNTLRLRIYIGENDKWEGRPLYKVIVEKLREMGIAGATVYRGIYGFGKKSRVHSSDVIRLSTDLPIIVEVVDRGHNIEKVVNVIKPMIKDGMITVEPTIVLWVGTQEEIKKFEEDAIAERQ”: the “soluble on expression in E. coli” value is “soluble”.

Take “MRVYAIADPHLSRVHPKPMTVFGAGWEGHPEAFFRGWREVVGEEDLVVVPGDISWAMRLSEAIPDLLDLARLPGRKVLLKGNHDYWWPSISRLRAALPPGMYALQNDALVVDGVAVAGTRGWQYPPQTPEDEKVFAREVERLKLSLKALEGQPYRHLVVAFHFPPFGPGGEASPLLELAAGAHPQAIVYGHLHGADPAKLPQSYRGIPLHLVAADALRFRPKLVLEAD”: the “soluble on expression in E. coli” value was “soluble”.

Turning to “MSLREIVLINITGVDRPGLTAAITGVLAQGGVNILDIGQAVIHDTLSFGILVEIPDTVQGSSVLKDILFTAYKLDQQVRFTAVSEEGYQHWVEGQGKARHIVTLLTRKVTAEQLQCVSAITAKYGLNIDQIDRLSGRMPLDTPADKGKGCIEFTVRGEPADPKAMQAEFLAVAQELNVDIAFQQDSLFRRNRRLAVFDMDSTLIEAEVIDELAKAAGVGEQVAEITERAMRGELDFSESFKERLALLKGLDVGVLDEIGASLRLTEGAETLFSELKRLGYKTAILSGGFTYFAKQLQAKLGIDYVYANELEVVDGKVTGVAVEPIVNAQRKADLLRELAHKEGLSLEQTIAVGDGANDLPMLAIAGLGVAFRAKPLVKQSAKQAISTLGLDGVLYLLGEGHHHHHH”, the “soluble on expression in E. coli” value is given as “soluble”.

Consider “MPPITQQATVTAWLPQVDASQITGTISSLESFTNRFYTTTSGAQASDWIASEWQALSASLPNASVKQVSHSGYNQKSVVMTITGSEAPDEWIVIGGHLDSTIGSHTNEQSVAPGADDDASGIAAVTEVIRVLSENNFQPKRSIAFMAYAAEEVGLRGSQDLANQYKSEGKNVVSALQLDMTNYKGSAQDVVFITDYTDSNFTQYLTQLMDEYLPSLTYGFDTCGYACSDHASWHNAGYPAAMPFESKFNDYNPRIHTTQDTLANSDPTGSHAKKFTQLGLAYAIEMGSATGDTPTPGNQ”, for which the “soluble on expression in E. coli” value is “soluble”.
